{"source": "patent US7884067B2", "about": "“Peptides derived from cadherin and methods of use thereof” (Mount Sinai School of Medicine of New York University, priority 2001, dated 2011)", "molecules": {"B1": {"name": "N-Cad/CTF2: chicken cytoplasmic domain of N-cadherin (N-Cad/CTF2) inserted into vector pECE, expressed in L cells (protein)", "chain": "KRRDKERQAKQLLIDPEDDVRDNILKYDEEGGGEEDQDYDLSQLQQPDTVEPDAIKPVGIRRLDERPIHAEPQYPVRSAAPHPGDIGDFINEGLKAADNDPTAPPYDSLLVFDYEGSGSTAGSLSSLNSSSSGGEQDYDYLNDWGPRFKKLADMYGGGDD"}}, "key": {"E-cadherin": {"tested_on": "E-cadherin", "assay": "E-cadherin cleavage in staurosporine-treated (apoptotic) A431 cells (Western blot)", "format": "cell-based, human", "procedure": "Cell Cultures and transfections. Cells were grown in Dulbecco's Modified Eagle Medium (DMEM) plus 10% fetal bovine serum, penicillin and streptomycin in 5% CO2 at 37° C. […] A431 cells were from American Type Culture Collection. […] A431D cells stably transfected with wild-type or GGG759-761AAA mutant E-cadherin were provided by Dr. A. B. Reynolds.\n(§1) Immunoprecipitations (IPs), immunoblotting, immunofluorescence and confocal microscopy. For WB analysis of cell extracts, cells were washed with PBS and then solubilized in RIPA buffer. For IPs cells were solubilized in Hepes buffer (25 mM Hepes [pH 7.4], 150 mM NaCl, 1× Complete protease inhibitor cocktail, Roche) containing 1% digitonin (IPs with I-R222 and PI-R222 antibodies) or 1% Triton X-100 (IPs with β-catenin and desmoglein antibodies). Following centrifugation at 17,000×g for 10 min, supernatants (1 mg protein) were pre-cleared with protein A- or protein G-agarose (Pierce) for 2 hours. Supernatants were then incubated with antibodies overnight at 4° C. and treated for 2 hours with protein A-agarose (polyclonal antibodies) or with protein G-agarose (monoclonal antibodies). IPs were washed with Hepes buffer containing either 1% digitonin or 1% Triton X-100 and analyzed by SDS-PAGE. Immunofluorescence and confocal microscopy was performed as described by Georgakopoulos et al., (1999). Briefly, cells were plated on 22×22 mm collagen-coated glass coverslips, fixed in cold methanol for 10 min at −20° C. Following washing in TBS (25 mM Tris-HCl [pH 7.4], 150 mM NaCl), cells were treated with 10% goat serum in SuperBlock (Pierce) for 1 hour, incubated overnight with primary antibody (1:100), washed in TBS and then were incubated with species specific Alexa Fluor™ secondary antibody conjugates (Molecular Probes). Cells were washed with TBS, mounted with Prolong antifade kit (Molecular Probes), and photographed on a Leica confocal laser scanning microscope.\nConditional media (20 μl) from A431 cells cultured in the absence or presence of […] and treated with SDS as above were probed on Western blots with anti-E-cadherin ectodomain antibody H108."}, "A431 cells": {"tested_on": "A431 cells", "assay": "Laser scanning confocal microscopy of ionomycin-induced cell-cell dissociation", "format": "cell-based, human", "details": "30 minutes pre-incubation with L-685,458, then ionomycin 45 minutes", "procedure": "as §1\nThe PS1/γ-secretase role in the disassembly of CAJ was further examined using laser scanning confocal microscopy (LSCM). A431 cells were pre-incubated for 30 minutes in the absence or presence of L-685,458 and then treated for 45 minutes with ionomycin. Following the ionomycin-induced cell-cell dissociation, the distribution of PS1, E-cadherin, β-catenin and α-catenin was analyzed by LSCM using the constant detector setting. […]"}, "c-fos": {"tested_on": "c-fos", "assay": "c-fos mRNA (RT-PCR) and protein (Western blot) in L cells", "format": "cell-based", "procedure": "Reverse Transcriptase (RT)-PCR Analysis. Total RNA was extracted from cells using a RNeasy Mini Kit (Qiagen) according to instructions by the manufacturer. Analysis of gene expression was performed using semiquantitative RT-PCR. The following primers were used: 5′-[…]-3′ (SEQ ID NO: 13) and 5′-[…]-3′ (SEQ ID NO: 14) for c-fos; 5′-[…]-3′ (SEQ ID NO: 15) and 5′-[…]-3′ (SEQ ID NO: 16) for gapdh.\nSemi-quantitative RT-PCR was used to determine relative levels of c-fos or gapdh mRNAs from L cells transfected either with vector (vector) or with 0.5 mg of pN-Cad/CTF2 (N-Cad/CTF2). The graph in FIG. 9C represents the relative abundance of c-fos-specific PCR products following quantitation of the mRNA signals shown in the upper panel.\nExtracts from L cells transfected with increasing amount of pN-Cad/CTF2 were probed on WBs with anti-c-fos (FIG. 9D, upper panel), anti-β-tubulin (FIG. 9D, middle panel) or C32 (FIG. 9D, lower panel) antibodies. Bars in lower panel represent the relative amounts of c-fos protein detected on WBs shown in the upper panel."}}}
{"molecule": "CC(C)C[C@H](NC(=O)[C@H](Cc1ccccc1)C[C@@H](O)[C@H](Cc1ccccc1)NC(=O)OC(C)(C)C)C(=O)N[C@@H](Cc1ccccc1)C(N)=O", "note": "[L-685,458]", "values": [{"measurement": "production of the 33 kDa cadherin fragment (E-Cad/CTF2)", "setting": "E-cadherin; 30 minutes preincubation with L-685,458 (0.5 μM), then STS 6 hours", "result": "completely blocked"}, {"measurement": "E-Cad/CTF1 level on inhibition of E-Cad/CTF2", "setting": "E-cadherin; L-685,458 (0.5 μM), STS 6 hours", "result": "increase in E-Cad/CTF1"}, {"measurement": "loss of cell surface staining of all epitopes", "setting": "A431 cells", "result": "significantly delayed"}]}
{"molecule": "B1", "values": [{"measurement": "cellular c-fos mRNA", "setting": "c-fos; 0.5 mg of pN-Cad/CTF2, vs vector, FIG. 9C", "result": "markedly reduces"}, {"measurement": "c-fos protein", "setting": "c-fos; increasing amount of pN-Cad/CTF2, FIG. 9D", "result": "markedly reduces"}, {"measurement": "levels of β-tubulin", "setting": "c-fos; pN-Cad/CTF2, FIG. 9D", "result": "no effect"}, {"measurement": "expression of gapdh mRNA", "setting": "c-fos; pN-Cad/CTF2 vs vector, FIG. 9C", "result": "no effect"}]}
